From patent US20250320268A1 (SHATTUCK LABS, published 2025) come the findings set out here.

Several values for one entry are separate records, joined by “and”; a condition that tells them apart may be missing. Equal values may be shown once.

Assay [1] addresses recombinant hCD47-Fc (human) (UniProt Q08722). As to the kind of experiment: SIRPα blocking ELISA: plate-bound hCD47, labelled competitor recombinant hSIRPα.
Assay [2] has as its target recombinant human FcγR1A, histidine-tagged (human) (UniProt P12314). As to the kind of experiment: SPR (ProteOn XPR36); His-tagged FcγR1A immobilized, binder as analyte.
Assay [3] has as its target T1, recombinant mouse CD47 (mouse, UniProt Q61735 19-140, limits assumed).
T1 construct: also called mCD47-Fc
T1 sequence (looked up): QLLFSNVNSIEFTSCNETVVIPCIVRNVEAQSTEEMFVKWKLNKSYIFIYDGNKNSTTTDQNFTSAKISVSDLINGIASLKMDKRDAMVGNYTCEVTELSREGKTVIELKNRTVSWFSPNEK
Put plainly: dual ELISA: coat mCD47-Fc, detect mCD40-His, tertiary anti-his-HRP. Here is the method: Plates were washed with TBS-T (Tris-buffered saline containing 0.1% Tween 20) and then detection antibody was added for 1 hour at room temperature in the dark. Detection antibodies included anti-hIgG-HRP, anti-mIgG-HRP, anti-hCD40L, anti-mCD40L, and then anti-Goat-HRP (all antibodies were obtained from Jackson ImmunoResearch Laboratories or R&D Systems). Plates were washed again and SureBlue TMB Microwell Peroxidase Substrate (KPL; purchased from VWR, catalog no. 95059-282) was added to each well and allowed to incubate at room temperature in the dark. To stop the reaction, 1N sulfuric acid was added to each well and absorbance at 450 nm was read immediately on a BioTek plate reader. Samples were run at a minimum in triplicate and at multiple dilutions.

In assay [4] the target is T2, recombinant human CD40, histidine-tagged (human, UniProt P25942 21-193).
T2 construct: Immobilized ligand in SPR and coating reagent in the single-sided ELISA; also called CD40 (AcroBiosystems); hCD40-His; not shown: histidine tag
Put plainly: SPR (ProteOn XPR36); His-tagged CD40 immobilized, binder as analyte.

Sequence of recombinant human FcγR1A, histidine-tagged (human) (P12314 16-288): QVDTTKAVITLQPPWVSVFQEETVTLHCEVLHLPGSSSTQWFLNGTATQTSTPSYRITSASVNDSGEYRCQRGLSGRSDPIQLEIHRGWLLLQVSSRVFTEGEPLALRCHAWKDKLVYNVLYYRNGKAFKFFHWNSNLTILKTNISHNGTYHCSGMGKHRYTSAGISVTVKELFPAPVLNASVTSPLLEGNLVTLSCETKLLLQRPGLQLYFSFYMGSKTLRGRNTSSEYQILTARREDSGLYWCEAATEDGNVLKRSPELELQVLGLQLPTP
T2 sequence (P25942 21-193 limits assumed): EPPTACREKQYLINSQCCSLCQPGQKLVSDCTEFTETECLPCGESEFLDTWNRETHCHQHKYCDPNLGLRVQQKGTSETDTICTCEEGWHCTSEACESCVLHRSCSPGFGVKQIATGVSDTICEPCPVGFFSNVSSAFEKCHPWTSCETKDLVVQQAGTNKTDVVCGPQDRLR
Sequence of recombinant hCD47-Fc (human) (Q08722 19-139 limits assumed): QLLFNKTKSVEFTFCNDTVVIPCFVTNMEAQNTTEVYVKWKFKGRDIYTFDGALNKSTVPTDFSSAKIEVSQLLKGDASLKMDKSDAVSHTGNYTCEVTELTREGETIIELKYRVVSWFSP

Take “anti-human CD47 blocking antibody, clone CC2C6 (BioLegend)”: the IC50 (read off the curve) in assay [1] was 10 nM.
Consider “human IgG1 (positive control for Fcγ receptors and FcRn) (antibody)”, for which, in assay [2], the Kd is 8.42 nM, the dissociation rate constant (koff) is 0.000156 s⁻¹ and the on-rate constant (kon) amounted to 18400 M⁻¹ s⁻¹.

B1: murine SIRPα-Fc-CD40L chimeric protein surrogate (Fc fusion)
chain: KELKVTQPEKSVSVAAGDSTVLNCTLTSLLPVGPIRWYRGVGPSRLLIYSFAGEYVPRIRNVSDTTKRNNMDFSIRISNVTPADAGIYYCVKFQKGSSEPDTEIQSGGGTEVYVLAKPSPPEVSGPADRGIPDQKVNFTCKSHGFSPRNITLKWFKDGQELHPLETTVNPSGKNVSYNISSTVRVVLNSMDVNSKVICEVAHITLDRSPLRGIANLSNFIRVSPTVKVTQQSPTSMNQVNLTCRAERFYPEDLQLIWLENGNVSRNDTPKNLTKNTDGTYNYTSLFLVNSSAHREDVVFTCQVKHDQQPAITRNHTVLGFAHSSDQGSMQTFPDNNATHNWNVPRDCGCKPCICTVPEVSSVFIFPPKPKDVLTITLTPKVTCVVVDISKDDPEVQFSWFVDDVEVHTAQTQPREEQFNSTFRSVSELPIMHQDWLNGKEFKCRVNSAAFPAPIEKTISKTKGRPKAPQVYTIPPPKEQMAKDKVSLTCMITDFFPEDITVEWQWNGQPAENYKNTQPIMNTNGSYFVYSKLNVQKSNWEAGNTFTCSVLHEGLHNHHTEKSLSHSPGKHRRLDKVEEEVNLHEDFVFIKKLKRCNKGEGSLSLLNCEEMRRQFEDLVKDITLNKEEKKENSFEMQRGDEDPQIAAHVVSEANSNAASVLQWAKKGYYTMKSNLVMLENGKQLTVKREGLYYVYTQVTFCSNREPSSQRPFIVGLWLKPSSGSERILLKAANTHSSSQLCEQQSVHLGGVFELQAGASVFVNVTEASQVIHRVGFSSFGLLKL
notes: also called mSIRPα-Fc-CD40L; mouse SIRPα-Fc-CD40L
For B1, the EC50 in assay [3] is 7.37 nM and 8.73 nM.

B2: recombinant hCD40L-Fc (positive control analyte) (Fc fusion, human, UniProt P29965 116-261, looked up)
chain: GDQNPQIAAHVISEASSKTTSVLQWAEKGYYTMSNNLVTLENGKQLTVKRQGLYYIYAQVTFCSNREASSQAPFIASLCLKSPGRFERILLRAANTHSSAKPCGQQSIHLGGVFELQPGASVFVNVTDPSQVSHGTGFTSFGLLKL
notes: also called hCD40L-Fc (AcroBiosystems); not shown: Fc part of a bought fusion
Consider B2, for which, in assay [4], the equilibrium dissociation constant (Kd) turned out to be 1.15 nM, the koff stood at 0.000351 s⁻¹ and the kon is 304000 M⁻¹ s⁻¹.
